The results in this text go back to the nanobody polyreactivity screen of Harvey et al. (2022).

The series is described as follows: yeast display, Sf9 membrane polyspecificity reagent, FACS + sequencing; frameworks hold sequencing errors. Summed up:
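Synthetic nanobody libraries on Saccharomyces cerevisiae BJ5465 were galactose-induced for 36–48 hours, stained 1 hour at 4 °C with 10% biotinylated, detergent-solubilized Sf9 membrane reagent and enriched on streptavidin microbeads. FACS then separated cells into low and high (top ~1%) gates by anti-HA (expression) and streptavidin (reagent binding) fluorescence. Genes were colony-PCR amplified, MiSeq 2 × 250 sequenced and CDR-length filtered. A clone's polyreactivity label is that of its gate of origin.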
Take “QVQLVESGGGLVQAGGSLRLSCAACGYSFPAYAMGWYRQAPGKERELVAAINRRGGTTYYADSVKGRFTISRDNAKNTVYLQMNSLKPEDTAVYYCARYSGLKDMDYWGQGTQVSVSS”: the “polyreactivity (PSR sort gate)” value is “high polyreactivity”. The value for “QVQLVESGGGLVQAGGSLRLSCAASGRTFRYNAMGWYRQAPGKERELVAAITWGGGSTYYADSVKGRFTISRDNAKYTVYLQMNSLKPEDTAVYYCNADYIGNYQSIYQYDYWGQGTQVTVSS” was “low polyreactivity”; that for “QVQLVESGGGLVQAGGSLRLSCAASGRTFPRNAMGWYRQAPGKERELVAAITTSGGRTYYADSVKGRFTISRDNAKNTVYLQMNSLKPEDTAVYYCAVRYDTLAWYAFYYWGQGTQVTVSS” was “low polyreactivity”; that for “QVQLVESGGGLVQAGGSLRLSCAASGRIFFYNTMGWYRQAPGKERELVATISWSGASTYYADSVKGRFTISRDNAKNTVYLQMNSLKPEDTAVDYCAAVTRYTGFDYWGQGTQVTVSS” was “high polyreactivity”.

Regarding “QVQLVESRGGLVQAGGSLRLSCAASGSTFYFYDMGLYRQAPGKERELVGAISSSGGDTYYADSVKGRFTISRDNAKNTVYLQMNSLKPEDTAVYYCAAGQLYSGYEYWGQGTQVTVSS”, the “polyreactivity (PSR sort gate)” value was “low polyreactivity”. With “QVQLVDSGGGLVQAGGSLRLSCAASGSIFVRYTMGWYRQAAGKERELVAGIRTNGSSTYYADSVKGRFTISRDNAKNTVYLQMNSLKPEDTAVYYCAARLYRYFRQYDYWGQGTQVTVSS”, the “polyreactivity (PSR sort gate)” value is recorded as “low polyreactivity”. The value for “QVQLVESGGGLVQAGGSLRLTCAASGSIFYYYAMGWYRQAPGKERELVASITYRGGSTYYADSVKGRFTISRDYAKNTVYLLMNSLKPEDTAFYYCAVVGYRYRHYYWGQGTQVTVSS” was “high polyreactivity”; that for “QVQLVESGGGLVQAGGSLRLSCAASGSTFNLYAIGWYRQAPGKEREFVAAIRGRGGNTYADSVKRRFTISRDNAKNTVYLQMNSLKPEDTAVYYCAAPLLRDLRSPYSYKYWGQGTQVTVSS” was “low polyreactivity”. Next, “QVQLVESGGGLVQAGGSLRLTCAASGRTFFYNAMGWYRPAPGKERELVAAISWSGGRTYYADSVKGRFTISRDNAKNTVYLQMNSLKPEDTAVYYCASTGFYSSHYHLDYWGQGTQLTVSS”: “high polyreactivity”; “QVQLVESGGGLVQAGGSLRLSCAASGRTFLEYAMGWYRQAPGKERELVASITWSGDTTYYADSVKGRFTISRDNAKNTVYLQMNSLKPEDTAVYYCAAGYYYPNTYYSYDWYDYWGQGTQVTVSS”: “low polyreactivity”; “QVQLVESGVGLVQAGGSLRLSCAASGLILRKYAKGWYSQAPGKEREFVAAITQTGSRTYYADSVKGRFTISRDNAKNTVYLQMNSLKPEDTAVYYCNAVNYRSSRDSGYWGQGTQVTVSS”: “high polyreactivity”. Next, “QVQLVESGGGLVQAGGSLRLSCAASGRTFYGYGMGWFRQAPGTDRELVAAIRVGGGSTYYADSVKGRFTISRDNAKNTVYLQMNILKPEDTAVYYCASAIYHYRQKDGYWGQGTQVTVSS”: “high polyreactivity”. “QVQLVESGGGLVQAGGSLRLSCAASGSIFGSYAMGWYRQAPGKERELVAAISYRGGRTYYADSVKGRFTISRDNAKNTVYLQMNSLKPEDTAVYYCNARARNSPPYDYWGQGTQVTVSS”: the “polyreactivity (PSR sort gate)” value is “high polyreactivity”. Turning to “QVQLVESGGGLVQAGGSLRLSCAASGRTLIYYAMGWYRQAPGKERELVAAISSSGTSTYYADSVKGRFTISRDNAKNTVYLQMNSLKPEDTAVYYCAADGRTLGRRYYYWGQGTQVTVSS”, the “polyreactivity (PSR sort gate)” value is on record as “high polyreactivity”.

Consider “QVQLVESGGGLVQAGGSLRLSCAASGSTFFGYAMGWYRQAPGKERELVAAIRYNGGRTYYADSVKGRFTISRDNAKNTVYLQMNSLKPEDTAVYYCAAYISYSRTYYYWGQGTQVTVSS”, for which the “polyreactivity (PSR sort gate)” value is reported as “low polyreactivity”.

Regarding “QVQLVESGGGLVQAGGSLRLSCAASGSIFVVYAMGWYRQAPGKARALVAAITSDDDTNYADSVKGRFTLSRDNAKNTVYLQMNSLKPEDTAVYYCAKEVWLAINTRTGYEVYYWGQGTQVTVTS”, the “polyreactivity (PSR sort gate)” value was “low polyreactivity”. Next, “QVQLVESGGGLVQAGRSLRLSCAASGRISTRYAMGWYRQAPGKERELVAAITIGTDTTYADSVKGRFTISRDNAKNTVYLQMNTLKPEDTAVYYCAAERYILARFEYWGQGTQVTVSS”: “low polyreactivity”; “QVQLVESGGGLVQAGGSRRLSCAASGRIFLGYTMGWYRQAPGKERELVAAISKSGDSTYYADSVKGRFTISRDNAKNTVYLQMNSLKPEDTAVYYCAAKRYRVGYGYWGQGTQVTVSS”: “high polyreactivity”; “QVQLVESGGGLVQAGGSLRLSCAASGRIITTYAMGWYRQAPGKERELVAAISRSSGSTYYADSVKGRFTISRDNAKNTVYLQMNSLKPEDTAVYYCNAYQRKSGRYDYWGQGTQVTVSS”: “high polyreactivity”.

On to “QDQLVESGGGLVQAGGSLRLSCAASGSIFYRNAMGWYRQAPGKERELVAAISSDGSTNYADSVKGRFTISRDNAKNTVYLQMNSLKPEDTAVYYCAAPWTQILDYWGQGTQVTVSS”, for which the “polyreactivity (PSR sort gate)” value was “low polyreactivity”.

With “QVQLVESGGGLVQAGGSLRLSCAASGFTFFPNAMGWYRQAPGKERELFAAISRSDDNTFYADSVKGRITISRDNAKNTVYLQMNSLKPEDTAVYYCDKSAVPWRYPRGYDYWGQGTQVTVSS”, the “polyreactivity (PSR sort gate)” value is reported as “low polyreactivity”. The value for “QVQLVESGGGLVQAGGSLLLSCAASGSIFGYYAMGWYRQAPGKERELVAAITRRGGSTYYADSVKGRFTISRDNAKNTVYLQMNSLKPEDTAVYYCNKVTRTEYDYWGQGTQVTVSS” was “high polyreactivity”; that for “QVQLVESGGGLFQAGVSLRLSCAASGRTLQIYHMGWYRQAPGKERELVAAISSSGGSTYYADSVKGRFTISRDNAKNTVYVQMNSLKAEDTAVYYCAADPRGYGYTRKGYYWGQGTQVTVSS” was “high polyreactivity”; that for “QVQLVESGRGLVQAGGSLRLSCAASGLTFGHYAMGGYRQAPGKERELVAAITSGGRTYYADSVKGRFTISRDNAKNTVYLQMNSLKPEDTAVYYCATRGPRYRYYYWGQGTQVTVSS” was “high polyreactivity”. Next, “QVQLVESGGVLVQAVGSLRLSCAASGSISSYYAMGWYIQAPGKERELVAAITSGGRTYYADSVKGRFTISRDNAKNTVYLQMNSLKPEATAVYYCAADPDTWSPHYESLGYYWGQGTQVTVSS”: “high polyreactivity”; “QVQIVESGGGLVQAGGSLRLSCAASGSIFKIYEMGWYRLAPGKEREMVASMTCSGGSTYYADSVKGRFTISRDNAKNTVYLQRNSLKPEDTAGYYCAAAVLGSSKSEVDPDRPEYYYWGQGTQVTVSS”: “low polyreactivity”.

As for “QVQLVESGGGLVQAGGSLRLSCAASGSIFRSNAMGWYRQAPGKERELVAAITSGTRKYYADSVKGRFTISRDNAKNTVYLQMNSLKPEDTAVYYCATKGSKYDRGYWGQGTQVTVSS”, the “polyreactivity (PSR sort gate)” value was “high polyreactivity”.

On to “QDQLVESGGGLVQAGRSLRLSCAASGSIYAFYAMGWYRQAPRKERELVAAISSRGGRTYYADSVKGRFTISRDNAKNTVYLQMNRLKPEETAVYYCAALYWRYLGYPVVRYYYWGQGTQVNVSS”, for which the “polyreactivity (PSR sort gate)” value is reported as “high polyreactivity”.

“QVQLVESGGGVVQAGGSLRLSCAASGSTFDVYAMGWYRPAPGKERELVAAITSGGTTNYADSVKGRFTISRDNAQNTVYLQLNSLKPEDTAVYYCAADSPWGGGYFVLYNYWGQGTQVTVSS”: the “polyreactivity (PSR sort gate)” value is on record as “low polyreactivity”.

In the case of “QVQLVESGGGLVQAGGSLRLSCAASGINLRRYAMGWYRQAPGKERELVARISYRGGRTNYADSVKGRFTISRDNAKNTVYLQMNSLKPEDTAVYYCAAVAWYYHEGTAYNYWGQGTQVTVSS”, the “polyreactivity (PSR sort gate)” value is “high polyreactivity”.

“QVQIVKSGGGLVQAGGSLRLSCAASGFIIPEYTMGWYRQAPGKERELVAAISGSGGSTYYADSVKGRFTISRDNAKNTVYLQMNSLIPEDTAVYYCIAPVYTADGYRYGSVRFGYWGQGTQVTVSS”: the “polyreactivity (PSR sort gate)” value is “low polyreactivity”. Next, “QLQLVESGGGLVQAGGSLRLSCAASGRTFYSYAKGWSRPAPGTDRQFVAAISVRGVITYYADSVKGRFTISRDNAKNTVYLQMNSLKPEDTAVDYCAADWSGYYTFDYWGQGTQVTVSS”: “low polyreactivity”. The value for “QVQLVESGGGLVQAGGSLRLSCAASGFIFSSYAMGWYRQAPGKEREFVAAIDWNSTSTYYADSVKGRFTISRDNAKNTVYLQMNSLKPEDTAVYYCAADWVGYFVYPYDYWGQGTQVTVSS” was “high polyreactivity”; that for “QVQLVESGGGLVQAGGSLRLSCAASGRTFFRYVMGWYRQAPGKERELVAAISRSGGSTYYADSVKGRFTISRDNAKNTVYLQMNSLKPEDTAVYYCNTVARSTVVPTEFDYWGQGTQVTVSS” was “high polyreactivity”; that for “QVQLVESGGGLVQAGGSLRLRCAASGKTFSWYALGWYRLAPGKERELVAVITSGGSTNYADSVKWRFTISRDNAKNTVYLQMNSLKPEDTAVYYCNRRPYGFEEFDYWGQGTQVTVSS” was “low polyreactivity”. For the sequence “QVQLVQSGGGLVQAGGSLRLSCAASGRTFGYYAMGWYRQAPGQERELVAAITRTGGSTHYADSVKGRFTISRDNAKNTVYVQMNSLKPVDTAVYYCARDYRYTIPYDYWGQGTQVTVSS”, the “polyreactivity (PSR sort gate)” value was “low polyreactivity”. Next, “QVQLVESGGGLVQAGGSLRLSCAAYGSIFKWYTMGWYRQAPGKERELVADINWNGGRTYYADSVKGRFTISRDYAKNTVYLQMNSLKPEDTAVFDCAASRGDYWGQGTQVTVSS”: “high polyreactivity”; “QVQLVESGGGLVQAGGSLRLSCAASGSIFHYYTMGWYRQAPGKERELVAGISRSGGSTYYADSVKGRFTISRDNAKNTVYLQMNSLKPEDTAVYYCAAARYPYLYAYGYWGQGTQVTVSS”: “high polyreactivity”. With “QVQLVESGGGLVHAGGSLRLSCAASGRTVKNNAMGWYRQSPGKERDLVAAISSTGSTNYADSVKGRFTISRDNAKNPVYLQMNSLKPADTAVYYCAAEGIFRYYTQATMEYWGQGTQVTVSS”, the “polyreactivity (PSR sort gate)” value is recorded as “low polyreactivity”. For “QVQLVESGGGLVQAGGSLRLSCAASGRTFWTYTLGWYRQAPGKEREFVAAITFGDGSTSYADSVKGRFTISRDNAKNTVYLQMNSLKPEDTAVYYCAAADQVGQEDDYWGQGTQVTVSS”, the “polyreactivity (PSR sort gate)” value is “low polyreactivity”.

“QVQLVESGGGLVQAGGSLRLSCAASRNIFDTYVMGWYRQAPGKETELVAANTSDGGTYYADSVKGRFTISRDNAKNTVFFQMNSLKPVDTAVYSCAADTYYYPIHDYWGQGTQVTVSS”: the “polyreactivity (PSR sort gate)” value was “low polyreactivity”.
